Results published in FireProtDB (doi:10.1073/pnas.0911904107).

Conditions: Escherichia coli (strain K12), pH 8, 25 °C, Urea, CD, whole UniProt chain shown
[1] = Sodium phosphate 50 mM, reversible: Yes
[2] = sodium phosphate buffer, transition: 2, reversible: yes

B1: Lipid A palmitoyltransferase PagP wild type, P37001 (protein)
chain: MNVSKYVAIFSFVFIQLISVGKVFANADEWMTTFRENIAQTWQQPEHYDLYIPAITWHARFAYDKEKTDRYNERPWGGGFGLSRWDEKGNWHGLYAMAFKDSWNKWEPIAGYGWESTWRPLADENFHLGLGFTAGVTARDNWNYIPLPVLLPLASVGYGPVTFQMTYIPGTYNNGNVYFAWMRFQF
Question: Which results are given for B1?
Answer: denaturant m value [1]: 1.64 kcal/mol/M; denaturant midpoint (higher = more stable) [1]: 8.77 M; unfolding free energy [1]: 14.4 kcal/mol; denaturant midpoint (higher = more stable) [2]: 8.77 M; unfolding free energy [2]: 14.4 kcal/mol
